Tested on: MS2 coat protein
Experiment: apparent KD of MS2 coat protein; designed switch direction (-1 OFF switch, 1 ON switch): -1; higher = weaker reporter binding
Summary of the method: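 Transcription of designed RNA switches on Illumina chips was done by stalled E. coli RNA polymerase. SNAP-549-labelled MS2 coat protein was then titrated in doubling steps from 0.7 or 1.5 nM to 3 µM, with steps of 0.8–1.5 h at the lowest and 10–20 min at the highest concentration. The per-design median over clusters of curve-fitted normalised fluorescence is reported as apparent KD.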

[1] = input ligand: microRNA oligo, concentration not stated
[2] = Eterna round: R95, input ligand: FMN 200 uM
[3] = Eterna round: R95, input ligand: microRNA oligo, concentration not stated
[4] = Eterna round: R95, input ligand: none

Sequence	apparent KD of MS2 coat protein (input ligand: FMN 200 uM) [nM]	apparent KD of MS2 coat protein (input ligand: none) [nM]	apparent KD of MS2 coat protein [1] [nM]	apparent KD of MS2 coat protein [2] [nM]	apparent KD of MS2 coat protein [3] [nM]	apparent KD of MS2 coat protein [4] [nM]
AACCGCAUAGGAUAUCGAGCAGAGGACUUGAGGAUCACCCAAGUCCUUGAGUUCUUUGUCCGAGAAGGAUGAACAU [Ususrace] (Eterna round: R97, puzzle: Exclusion 5)	13.7	14.6				
AAACUGAGGCAAAGCUUUAGUCGUACAUGAGGAUCACCCAUGUAGGAUAUGGUAGGCUUUGCUUACCAGAAGGACAGAGUGAUC [Mat - Exclusion NG 3 - Mod of JL - D56] (Eterna round: R96, puzzle: Exclusion NG 3)	235	110	103			
GAUUGACAUGAGGAUCACCCAUGUGAGGAUAUCGGCUGGACCGUGUUGGCUUGCCUCUCGAGAAGGCGCAUAGG [Exclusion 1 V52] (puzzle: Exclusion 1)				38.8	35	43.8
GCAUUUGAGCAGGAUAUAGCCUGAACAUAAUGGUUAGAAGGGCUCACAUGAGGAUCACCCAUGUGGUGUCCAAA [Inratete] (puzzle: Exclusion 6)				76.4	15.3	15.6
GCGCCAUCGUGAGAUGGCGUAUAUACAUGAGGAUCACCCAUGUAGGAUAUCGAUUGCUUUGCAGUCGAGAAGGGCAUGUAAUUU [JL ENG3 3.93] (Eterna round: R96, puzzle: Exclusion NG 3)			25.8			
CUUUCGUGAGGAUAUGUGGCUUCGAUCGUGAGAUCGAGGCAACAGAAGGCACAUGAGGAUCACCCAUGUUCCUC [salish99_ex4_r4_207] (Eterna round: R97, puzzle: Exclusion 4)	546	40.5				
GAGUGACAUGAGGAUCACCCAUGUGAGGAUAUGCGACGGACCAAAUUAACAAUAGAAGGCAGAAGGCGCAUAAA [Exclusion 1 V10] (puzzle: Exclusion 1)				26.9	33.1	31.1
UUAAUUAAUUAAUUAUAAGAUCAACAUGAGGAUCACCCAUGUGAGGAUAUCAGCUCGUGUAGAGCUGAGAAGGCACAAAUAAUU [ExNG3/16-B3] (Eterna round: R96, puzzle: Exclusion NG 3)	86.5	51.5	27.9			
GAACCGCGAGGAUAUACAGUCGAGUCUAUUACGUGUCUCGGACUUGAGGAUCACCCAAGUAGAAGGCGUCUCAG [salish99_ex2_r4_635] (Eterna round: R97, puzzle: Exclusion 2)	54.5	56.2				
GAAAAGUGAGGAUAUCGACAUCUCGACAUGAGGAUCACCCAUGUUGUAGGUCGUGUCGAGCGAGAAGGCACAAUAA [EX5 B.9] (Eterna round: R97, puzzle: Exclusion 5)	48.2	15				
GUGUAACUACACGGGCUCAACAUGAGGAUCACCCAUGUCAUACACGCAAGCUCUUUGCUUGUCUUAUCUGUCCGUGA [Erriusti] (puzzle: Sensor v3, turn-off variant 1)				16.8	16.6	14.5
UUAUACGGUGAGGAUAUCUUCACUAAAGUGUGAAGAGAAGGCGCUACAUGAGGAUCACCCAUGUCUAUGGGCAG [Ex-6 Malc#17] (Eterna round: R96, puzzle: Exclusion 6)			331			
CAUAGUUACUCAGGAUAUCAUACAUGAGGAUCACCCAUGUAAUAAAUGAGAAUUUCGAAUGUAUAUGAGAAGGGAGAAAUCUAC [Ostracism 59 - Jieux - Exclusion NG 2] (Eterna round: R96, puzzle: Exclusion NG 2)	69.2	22.6	13.4			
GGUCAGAUGGUAGGAUAUCCAUAUCGAGUGACCCUUUCAUAACAUGAGGAUCACCCAUGUUGGUGGGAGAAGGGCCGUACGGCG [salish99_ExNG02_R04_019] (Eterna round: R96, puzzle: Exclusion NG 2)	17.2	22	14.4			
UAUAUGUCAGGAUAUUAGUUGAGGUGGAAUUUAGCCUAUGCUGAGAAGGGACAUGAGGAUCACCCAUGUUCCUC [JR_Ex4_Sub011] (Eterna round: R97, puzzle: Exclusion 4)	93.9	19.1				
UUAUUGGUUGUGAGGAUAUCGGAUAGAUAGAUAUUCGAGAAGGCACAUGAGGAUCACCCAUGUGUGAUUGGAAA [JR_BMEx4_Sub047] (Eterna round: R97, puzzle: Brourd's mod of Exclusion 4)	276	27.9				
AAUUUAACAUAGGAUAUCGAAUUUAUUAUUUAACGAGAAGGAUGAACAUGAGGAUCACCCAUGUGGUAUCAUGG [Mat - Exclusion 6 - JL Mod - D22] (puzzle: Exclusion 6)				100	109	174

Sequence	apparent KD of MS2 coat protein (input ligand: FMN 200 uM) [nM]	apparent KD of MS2 coat protein (input ligand: none) [nM]	apparent KD of MS2 coat protein [1] [nM]	apparent KD of MS2 coat protein [2] [nM]	apparent KD of MS2 coat protein [3] [nM]	apparent KD of MS2 coat protein [4] [nM]
ACAUGAUACUAGGAUAUCAGCAUACUUCAAUGUUGAGAAGGAGUAACAUGAGGAUCACCCAUGUAUCCAACAUG [Exclusion 6 - 4:b] (puzzle: Exclusion 6)					43.5	
GUCACAUGGGUGUAGAAUCACAUGAGGAUCACCCAUGUGACUAACAAGCUUUUUGCUCGUCUUAUGUCUAUGUGAAG [Stov1/17-A3] (Eterna round: R97, puzzle: Sensor, turn-off variant 1)	58.7	32.1				
CGUUGAUGAGGAUAUCGAUGUUAGUACAUGAGGAUCACCCAUGUUAUCCAAGUGUCGGAUCGAGAAGGUAUUGGAC [LRO-Ex5-19] (puzzle: Exclusion 5)					241	
AAUUUUUGAUACCUUUAAUACAUGAGGAUCACCCAUGUUAUCGAGGAUAUGUAGAUGAAAUGAGAACAGAAGGCGAAGUAAGAG [JR_ExcNG3_Sub099] (Eterna round: R96, puzzle: Exclusion NG 3)	41.5	15.6	3.24			
AAGUUACAUGAGGAUCACCCAUGUGAGGAUAUGAGUCAGUCACGGUGACGUGGCUGACUCAGAAGGCACAAAGG [JL-ex1-4.37 salish99 mod] (Eterna round: R97, puzzle: Exclusion 1)	256	98.1				
GAUAAGGUAGGAUAUACGAAUAAAAAGGGUAGAAGAAGAACACAUGAGGAUCACCCAUGUAGAAGGACCAAGAG [Mat - Exclusion 2 - Mod of my Tesla design - D23] (puzzle: Exclusion 2)				43	20.6	19.6
GAUCUGUAAGGAUAUCGUGCAAGUUUCAAAAGAGGCUUGUGCGAGAAGGUACAUGAGGAUCACCCAUGUAGGUU [Omei Ex4 B15] (Eterna round: R97, puzzle: Exclusion 4)	52.6	40.1				
AGUACUGACACGAAAGUGUUAGUACAAUAAGCUUGUGAAACAUGAGGAUCACCCAUGUCCUCAUAAGCUCGUCUUAU [salish99_TOv2_r3_017] (Eterna round: R96, puzzle: Sensor v3, turn-off variant 2)	15.9	17.9	469			
ACUUAUAGAGGAUAUACAGUAUAUUACAUGAGGAUCACCCAUGUUCUUCAAUGUAUAUAUGUAGAAGGCUAAGGAA [EX-5 Malc#6] (puzzle: Exclusion 5)					183	
AGUAGUUGUUUCCGUUCUUACAUGAGGAUCACCCAUGUUUCUUGUCGUGCUCGCGUUGCUCGUCAGACUACCUGUUG [salish99_TOv1_r3_062] (puzzle: Sensor v3, turn-off variant 1)				69.8	88.6	105
GCCCGGGCAGGAUAUACAAUGAGCUUGAGAAAUCGAGUUCGACAUGAGGAUCACCCAUGUAGAAGGGCCCGGGC [-37.4, -35.1 kcal, A 28% 1] (Eterna round: R97, puzzle: Exclusion 2)	24.5	14.9				
CCGUGCACGCUCCGGUCCUACAUGAGGAUCACCCAUGUGGUCCGGUGGCGUGGGUCGCCGGACUUGGCUCGUCUUGU [salish99_S_TOV1_R5_018] (Eterna round: R97, puzzle: Sensor, turn-off variant 1)	16.3	17.4				
GGUCUGCGAGGAUAUACAUGAGGAUCACCCAUGUGAGUGAAACUAGUGAGGUCGAUUGGUAGAAGGCGCGGACG [Mat - Exclusion 3 - Mod of JL D82] (puzzle: Exclusion 3)				17.7	63	17.5
UUAAAUCAUGUAGGAUAUGCAUAGCGAAGCUAUGCAGAAGGACAUGAGGAUCACCCAUGUGCUUGCGUCCGCGUACGGAUGCUA [Mat - Exclusion NG 1 - Mod of JL - D67] (Eterna round: R96, puzzle: Exclusion NG 1)	423	123	84.4			
GAGUACUGAGGAUAUACAUGAGGAUCACCCAUGUGUUCCAGCUAGGAAACUAGCAAAAGUAGAAGGCAGUACUG [salish99_ex3_r3_084] (Eterna round: R96, puzzle: Exclusion 3)	311	23.2	19.3			
ACUUACUGAGGAUAUACAUAGAUUUACAUGAGGAUCACCCAUGUUCCUCUAUGUAUAAAUGUAGAAGGCAGAAGAU [Mat - Exclusion 5 - JL Mod - D55] (Eterna round: R97, puzzle: Exclusion 5)	64.2	17.8				
